Test system: MS2 coat protein
Experiment: apparent KD of MS2 coat protein; designed switch direction (-1 OFF switch, 1 ON switch): -1; higher = weaker reporter binding
In short: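 Normalised cluster fluorescence was curve-fitted, and each design's median over clusters is its apparent KD. Before this, SNAP-549-labelled MS2 coat protein was titrated from 0.7 or 1.5 nM, doubling to 3 µM, over RNA switches transcribed on Illumina chips by stalled E. coli RNA polymerase. Titrations had no input, 200 uM small-molecule ligand, or an oligonucleotide input, and steps lasted 0.8–1.5 h (lowest) to 10–20 min (highest).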

[1] = Eterna round: R95, input ligand: FMN 200 uM
[2] = Eterna round: R95, input ligand: microRNA oligo, concentration not stated
[3] = Eterna round: R95, input ligand: none
[4] = input ligand: microRNA oligo, concentration not stated

Row | Sequence | apparent KD of MS2 coat protein [1] | apparent KD of MS2 coat protein [2] | apparent KD of MS2 coat protein [3] | apparent KD of MS2 coat protein (input ligand: FMN 200 uM) | apparent KD of MS2 coat protein [4] | apparent KD of MS2 coat protein (input ligand: none)
1 | AAGUACUACAAGCUUUGGGACAUGAGGAUCACCCAUGUUCGUCUUAUUGAUCUAGGUACGCUGACGUACCUAGAUCU [Mat - Sensor v3 - turn-off var 1 - JL Mod - D8] (puzzle: Sensor v3, turn-off variant 1) | 16.5 nM | 73.4 nM | 13.2 nM |  |  | 
2 | GUCAGCUCGUCAGGAUAUAUAUUAACAUGAGGAUCACCCAUGUAAGAUCAGCUUCGGCAGUUAAUAUAGAAGGGACGAGCUGAC [ENG2/14-B1] (Eterna round: R96, puzzle: Exclusion NG 2) |  |  |  | 181 nM | 154 nM | 153 nM
3 | AAGAAACAUGAGGAUCACCCAUGUGAGGAUAUGACAAAGAAAAGAAAAGAAAGAAGAGUCAGAAGGCACAAAGG [salish99-ex1_r3_038] (puzzle: Exclusion 1) | 137 nM | 53.1 nM | 57.7 nM |  |  | 
4 | AACUUCUGAGGAUAUACUUAGAUUUACAUGAGGAUCACCCAUGUUCCUCUUUGUAUAAAUGUAGAAGGCAGAAGAA [JL-ex5-4.38 Malcolm mod] (Eterna round: R97, puzzle: Exclusion 5) |  |  |  | 381 nM |  | 45.3 nM
5 | GUUGGUAAGUCAGGAUAUCCCUGUAAUGGCAGCGGAGAAGGGACAUGAGGAUCACCCAUGUGAACCUCCGGCGGAUAAACCCGC [Ancelave] (Eterna round: R96, puzzle: Exclusion NG 1) |  |  |  | 111 nM | 29.5 nM | 23.6 nM
6 | UAGAAUCGAGGAUAUACAUGAGGAUCACCCAUGUGUUGCCGCAUGAUAUGAUCGUCAGGUAGAAGGCGAUUAUA [Exclusion 3 - Mod of Jieux's Gilly Gone Silly 23 v.6] (puzzle: Exclusion 3) | 37.6 nM | 83.4 nM | 82.9 nM |  |  | 
7 | AUCAGCUCGUGAGGAUAUGAACAUGAGGAUCACCCAUGUAAGAUCAAGCUGCUUCGGCAGCAAGUUCAGAAGGUACGAGCUGAU [ENG2/10-C3] (Eterna round: R96, puzzle: Exclusion NG 2) |  |  |  | 197 nM | 78.1 nM | 139 nM
8 | GUAUAAUGAGUCAGGAUAUUGAUGACGCUAGGACACAAGAAGGGACAUGAGGAUCACCCAUGUUAUUAUGCGGU [Eternabot (L2) Solution 29] (Eterna round: R97, puzzle: Brourd's mod of Exclusion 4) |  |  |  | 88.2 nM |  | 63.9 nM
9 | AGUUGUUGUUUCCGUUCUUACAUGAGGAUCACCCAUGUUUCUUGUCGUGCUCGCGUUGCUCGUCUGGCUGCCUGUUG [salish99_TOv1_r3_069] (puzzle: Sensor v3, turn-off variant 1) | 40.7 nM | 35.2 nM | 53.3 nM |  |  | 
10 | ACUUAUAGAGGAUAUACAGUUAAUUACAUGAGGAUCACCCAUGUUCUUCAAUGUAUAUAAGUAGAAGGCUAAGAAA [Mat - Exclusion 5 - Eli Mod - D5] (Eterna round: R97, puzzle: Exclusion 5) |  |  |  | 58 nM |  | 13.5 nM
11 | UAUAAGAUAGGAUAUACAGGCCCGUCUUCAUAUCGAUCCCGACAUGAGGAUCACCCAUGUAGAAGGAUCGUAUA [Mod 22 - Jieux - Exclusion 2] (Eterna round: R97, puzzle: Exclusion 2) |  |  |  | 15 nM |  | 8.25 nM
12 | CAGUACUGAGGAUAUACAUGAGGAUCACCCAUGUGAUCUGGUGCACGCGUACGUGUACGUAGAAGGCAGUACUG [JL 3.27 m4] (Eterna round: R97, puzzle: Exclusion 3) |  |  |  | 1280 nM |  | 121 nM
13 | CUGGUCCGAGGAUAUAUUAAGUGAUACAUGAGGAUCACCCAUGUAAUUUGAUGGAUGUAAAUAGAAGGCGGACUAG [JL-ex5-3.10] (puzzle: Exclusion 5) | 36.8 nM | 63.5 nM | 45 nM |  |  | 
14 | GUUUUAUAUGAAGGAUAUACUUAACAUGAGGAUCACCCAUGUGGUGUUGUGAGUGAGUGAGUUUAGUAGAAGGUCAAUUCUUUU [JMF's solution 99] (Eterna round: R96, puzzle: Exclusion NG 2) |  |  |  | 622 nM | 593 nM | 408 nM
15 | UAUUAGCAAGCGAGAUCCCACAUGAGGAUCACCCAUGUGCUCGUCUUAUAAGGUACUGUGACGAUAGUCACGGUACC [Mat - Sensor, turn-off var - Eli Mod - D16] (Eterna round: R97, puzzle: Sensor, turn-off variant 1) |  |  |  | 12.9 nM |  | 14.8 nM
16 | GUACGAGCCAAACACGUGGACAUGAGGAUCACCCAUGUGUCACCGGAUCCAUAGAGCUCGUCUUACCGACAAAAGCU [Eternabot (Original) Solution 17] (Eterna round: R97, puzzle: Sensor, turn-off variant 1) |  |  |  | 28.9 nM |  | 31.6 nM
17 | ACAUGAGGAUCACCCAUGUGACCAUGAUGGCUGAUGUAGAGCUAGGAUAUGAGUGAAUAUCUAUCUCAGAAGGAGCUUGACUGG [Deportation 48 - Jieux - Exclusion NG 3] (Eterna round: R96, puzzle: Exclusion NG 3) |  |  |  | 16.7 nM | 15.4 nM | 21.3 nM

Row | Sequence | apparent KD of MS2 coat protein [1] | apparent KD of MS2 coat protein [2] | apparent KD of MS2 coat protein [3] | apparent KD of MS2 coat protein (input ligand: FMN 200 uM) | apparent KD of MS2 coat protein [4] | apparent KD of MS2 coat protein (input ligand: none)
18 | ACGCCCUGAGGAUAUCUUAUCCCGUACAUGAGGAUCACCCAUGUUUUCCUCCGGGCUUCGAGAGAAGGCAGGCCCA [Armus14] (Eterna round: R97, puzzle: Exclusion 5) |  |  |  | 88 nM |  | 39 nM
19 | AUCGUGCAGCUUUGCUGUACGAGUACAUGAGGAUCACCCAUGUAGGAUAUGGUACGCAAAGCGUGCUAGAAGGAUAUGAGAUGU [Mat - Exclusion NG 3 - Mod of JL - D98] (Eterna round: R96, puzzle: Exclusion NG 3) |  |  |  | 30.4 nM | 25.2 nM | 31.6 nM
20 | ACCGCAAGAGGAUAUACAUGAGGAUCACCCAUGUCGACCGCGAGAGACGUGGACCGGCGUAGAAGGCUUGCCAC [Eternabot (Original) Solution 50] (Eterna round: R97, puzzle: Exclusion 3) |  |  |  | 355 nM |  | 56.8 nM
21 | GCGCCAUCGUGAGAUGGCGUAUAUACAUGAGGAUCACCCAUGUAGGAUAUCGAUUGCUUUGCAGUCGAGAAGGGCGUGAUAAUU [JL ENG3 3.69] (Eterna round: R96, puzzle: Exclusion NG 3) |  |  |  | 109 nM | 60.5 nM | 82 nM
22 | GAUUAAUGCAAGGAUAUGCUAUUAAUUUAUUUUGCAGAAGGUGCAACAUGAGGAUCACCCAUGUUGGAGGGUAU [JR_E6_Sub027] (puzzle: Exclusion 6) |  | 18.8 nM |  |  |  | 
23 | AUCAUGUGAGGAUAUGUGAUCAACCUUCUGUAUAGAUGAUUACAGAAGGCACAUGAGGAUCACCCAUGUAGAUC [Ex4 - 3 - 21] (puzzle: Exclusion 4) |  | 55.7 nM |  |  |  | 
24 | AGCUAGUGCCGAGGAUAUACAUGAGGAUCACCCAUGUAGCCGUGAGGCUUUGUCUCACGGGAUAUGUAGAAGGCGGCGUUGGCA [JL ENG2 1.53] (Eterna round: R96, puzzle: Exclusion NG 2) |  |  |  | 34.1 nM | 11.8 nM | 18.3 nM
25 | CGUGCGUAUGUGAGGAUAUGCUGGUCCUUGGCUCGGCAGAAGGCACAUGAGGAUCACCCAUGUGGUGUCGUACG [salish99_Bmod_ex4_062] (puzzle: Brourd's mod of Exclusion 4) | 53.4 nM | 152 nM | 171 nM |  |  | 
26 | GGAAAACAUGAGGAUCACCCAUGUAAGGAUAUGCAAAAGGAUAUAGAAGGAAAAAUAAGCAGAAGGUACAAAGG [salish99-ex1_r3_097] (puzzle: Exclusion 1) | 50.9 nM | 42.5 nM | 43.5 nM |  |  | 
27 | CAGUACUGAGGAUAUACAUGAGGAUCACCCAUGUGAAAAAGCUACGAAAGUAGCAAAUGUAGAAGGCAGUACUG [Ex3: 806] (Eterna round: R96, puzzle: Exclusion 3) |  |  |  |  | 29.9 nM | 
28 | CCACUGUCAGGAUAUCGUGCAUAACGUUUACAUUAUAUGUGCGAGAAGGGACAUGAGGAUCACCCAUGUAAACG [Omei Ex4 A28PK1] (Eterna round: R97, puzzle: Exclusion 4) |  |  |  | 604 nM |  | 566 nM
29 | UUUAUGUCAGGAUAUGAUUAGAUCUACUUCGGUAGAUCUAAUCAGAAGGGACAUGAGGAUCACCCAUGUAGUUU [Ex4 - 3 - 13] (puzzle: Exclusion 4) |  | 119 nM |  |  |  | 
30 | AGUAACAGAGGAUAUACUAUUUUAUGUAUUUAUUAUUUUGAACAUGAGGAUCACCCAUGUAGAAGGCUGAAUAA [JMF 89] (puzzle: Exclusion 2) |  | 23.3 nM |  |  |  | 
31 | UAUUUAGCAAGCAGAUCCCACAUGAGGAUCACCCAUGUUCUCUGAAAGUACAGAAUUACUGUACUUGCUCGUCUUAU [Winner reversed engineered 34] (Eterna round: R97, puzzle: Sensor, turn-off variant 1) |  |  |  | 210 nM |  | 237 nM
32 | GGUCAGACGGUAGGAUAUCCAUAUCGAGUGACUCUUUCAUAACAUGAGGAUCACCCAUGUCGGUGGGAGAAGGGCCGUACGGCG [salish99_ExNG02_R04_005] (Eterna round: R96, puzzle: Exclusion NG 2) |  |  |  | 61.5 nM | 29.6 nM | 42.7 nM
33 | CCCUCACAUGAGGAUCACCCAUGUCAGGAUAUUCGAGGCGCAAAUACGCCAAAUGCAGGAAGAAGGGACGUGCC [Ususzalaxe] (puzzle: Exclusion 1) |  | 13.5 nM |  |  |  | 
